The target of test [1] is Aβ42 A21C/A30C (Aβ42-CC) monomers (UniProt P05067). Kind of test: direct ELISA, Aβ42-CC monomers coated at pH 10.4 with 10 mM TCEP (reduced form). A general note: ELISA stands for enzyme-linked immunosorbent assay.
Test [2] shares this target. Put plainly: direct ELISA, Aβ42-CC monomers coated at pH 10.4.
The target is the same in test [3]. Kind of test: direct ELISA, Aβ42-CC monomers coated at pH 7.4.

As to “monoclonal antibody 6E10 (Covance Research Products)”, the total Ig titer (log10) amounted to 2.1 log10 titer in test [1], 2 log10 titer in test [2] and 2.1 log10 titer in test [3].
